Measured values: publication PMC2191888

Molecular target: MCP-1 receptor(s) on THP-1 cells (human (endogenous in THP-1)) (UniProt P41597)
Experiment: radioligand binding

MCP-1 2-76 analogue (from UniProt P13500 25-99) (domain or fragment)
Kd: 385 nM

MCP-1 3-76 analogue (from UniProt P13500 26-99) (domain or fragment)
Kd: 487 nM

MCP-1 5-76 analogue (from UniProt P13500 28-99) (domain or fragment)
Kd: 23 nM

MCP-1 9-76 analogue (from UniProt P13500 32-99) (domain or fragment)
IC50: 17 nM
Kd: 8.3 nM

MCP-1 10-76 analogue (from UniProt P13500 33-99) (domain or fragment)
fold higher Kd than MCP-1: 13 fold

MCP-1 11-76 analogue (from UniProt P13500 34-99) (domain or fragment)
fold higher Kd than MCP-1: 48 fold

MCP-1 (Ac) (from UniProt P13500 24-99) (ligand)
Kd: 333 nM

Monocyte chemoattractant protein 1 (MCP-1), synthetic, NH2-terminal pyroglutamate form (from UniProt P13500 24-99) (ligand)
Kd: 2.8 nM
